Here are results for 14 molecules from US20210393776A1 (FABION PHARMACEUTICALS, published 2021).

By EC50 (read off the curve) is commonly meant the concentration needed to bring the measured effect to its halfway point.

Assay [1] addresses T1, recombinant cyno CD3epsilon/delta Fc(K-H) heterodimer (cynomolgus).
T1 construct: also called cynomolgus CD3epsilon/delta; recombinant cyno CD3epsilon/delta heterodimeric Fc protein; copies: 1 + 1
Put plainly: ELISA, immobilised antigen, biotinylated protein, streptavidin-HRP, ABTS, OD405. Background: ELISA stands for enzyme-linked immunosorbent assay.

Assay [2] has as its target T2, human CD3epsilonAA1-27.Fc (human).
T2 construct: also called recombinant human CD3epsilon N-terminal peptide (aa1-27.Fc fusion); CD3epsilon N-terminal amino acid 1-27 peptide Fc fusion
Described as above.

In assay [3] the target is T3, full length human EpCAM on CHO cells (human, UniProt P16422 24-314).
T3 construct: CHO cells stably expressing full length human EpCAM; also called hu-EpCAM-FL; human EpCAM-FL
T3 sequence: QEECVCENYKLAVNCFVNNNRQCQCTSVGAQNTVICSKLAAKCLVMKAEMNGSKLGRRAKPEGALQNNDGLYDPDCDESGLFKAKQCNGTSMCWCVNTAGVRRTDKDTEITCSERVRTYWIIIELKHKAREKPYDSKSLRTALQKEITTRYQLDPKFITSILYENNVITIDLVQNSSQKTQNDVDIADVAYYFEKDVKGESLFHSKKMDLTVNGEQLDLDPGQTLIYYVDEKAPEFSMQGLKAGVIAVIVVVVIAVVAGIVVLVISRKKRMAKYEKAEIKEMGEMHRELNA
Put plainly: flow cytometry on CHO cells stably expressing full length human EpCAM, PE detection. On the technique in general: A flow cytometer gives signals particle by particle.
Protocol: (§1) In general, cells were blocked in 1% BSA/PBS for 1 hr at 4 C and antibodies of interest were diluted into 1% BSA/PBS were added to blocked cells for incubation at 4° C. for 1 hr. after one wash with 1% BSA/PBS, staining procedures vary depending on the availability of antibodies or fluorescent antibody conjugate. In some case, direct fluorescence conjugates were used. In other cases, anti affinity tag antibodies (secondary antibody) were used to incubate with the cells followed by anti-species antibody conjugated with a particular fluorophore. In some other experiments, antibody (or other affinity reagent such as streptavidin) with fluorescence conjugate was used directly as secondary antibody (secondary reagent).

For assay [4], the target named is T4, recombinant human CD3epsilon/delta Fc(K-H) heterodimer (human).
T4 construct: also called human CD3epsilon/delta knob and hole Fc heterodimer; copies: 1 + 1
Briefly: ELISA, immobilised antigen, His6-tagged Fab, anti-His6 antibody HRP conjugate, ABTS, OD405.
Protocol: (§2) Humanized Fab proteins are his6 tagged at the C-terminus of Fd and the Fabs bound to the 96-well plate immobilized antigens were detected using anti his6 tag mouse antibody conjugated with HRP. ABTS was used as substrate and absorptions were measured at 405 nm.
(§3) MAXISORP® plates were used for ELISA binding assays. 50 μl of 1 μg/ml of antigens in 50 mM NaHCO₃were used to coat the plates at 4° C. overnight followed by incubation with 200 μl of 5% dry milk/TBS-0.05% TWEEN®-20 (i.e., polysorbate 20) (MTBS-T)/well. Antibodies were usually diluted in 5% MTBS-T and transferred to antigen coated plates and incubated for 1 hr with gentle shaking at room temperature. Bound antibodies were detected either by streptavidin-HRP (for detecting biotinylated antibodies) or anti-his tag-HRP conjugate (for his tagged antibodies). ABTS™ (i.e., 2,2′-azino-bis(3-ethylbenzothiazoline-6-sulphonic acid) solution in 50 mM citrate buffer was used for detection with OD405 measurement on using a microplate reader (Biotek).

Assay [5] concerns the target T1, recombinant cyno CD3epsilon/delta …. Put plainly: ELISA, immobilised antigen, His6-tagged Fab, anti-His6 antibody HRP conjugate, ABTS, OD405 [continued) E].
Protocol: as §2, §3
Assay [6] concerns the target T2, human CD3epsilonAA1-27.Fc. Briefly: ELISA, immobilised antigen, His6-tagged Fab, anti-His6 antibody HRP conjugate, ABTS, OD405.
Protocol: as §2, §3
Assay [7] has as its target T4, recombinant human CD3epsilon/delta …. The assay is described as above. The source holds these as a separate data set.
Protocol: as §2, §3
The target of assay [8] is T2, human CD3epsilonAA1-27.Fc. The assay is described as above. This is another data set of the same source.
Protocol: as §2, §3
The target of assay [9] is T1, recombinant cyno CD3epsilon/delta …. Briefly: ELISA, immobilised antigen, His6-tagged Fab, anti-His6 antibody HRP conjugate, ABTS, OD405 [continued) F].
Protocol: as §2, §3
Assay [10] addresses T3, full length human EpCAM on CHO cells. Put plainly: flow cytometry on CHO cells stably expressing full length human EpCAM, PE detection. This is another data set of the same source.
Protocol: as §1
The target in assay [11] is T1, recombinant cyno CD3epsilon/delta …. Briefly: ELISA, immobilised antigen, biotinylated protein, streptavidin-HRP, ABTS, OD405. This is another data set of the same source.
In assay [12] the target is T3, full length human EpCAM on CHO cells. Briefly: flow cytometry on CHO cells stably expressing full length human EpCAM, PE detection. The source holds these as a separate data set.
Protocol: as §1
Assay [13] addresses T2, human CD3epsilonAA1-27.Fc. Briefly: ELISA, immobilised antigen, biotinylated protein, streptavidin-HRP, ABTS, OD405. The source holds these as a separate data set.

Positions count from the first letter of the chain named. Where two headings read alike, the source gives them in different places.

T4 sequence (chain, as listed by the source mutant limits assumed, chain 1 of 2): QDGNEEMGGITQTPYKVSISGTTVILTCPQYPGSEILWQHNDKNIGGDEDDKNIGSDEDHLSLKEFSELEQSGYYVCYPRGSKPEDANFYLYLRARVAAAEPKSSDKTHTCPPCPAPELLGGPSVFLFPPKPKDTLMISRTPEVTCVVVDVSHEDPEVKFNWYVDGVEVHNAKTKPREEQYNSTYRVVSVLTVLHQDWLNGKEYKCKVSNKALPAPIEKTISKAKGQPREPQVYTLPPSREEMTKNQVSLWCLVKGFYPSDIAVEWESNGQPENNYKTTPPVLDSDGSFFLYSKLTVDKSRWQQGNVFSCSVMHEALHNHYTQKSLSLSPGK
T4 sequence (chain, as listed by the source mutant limits assumed, chain 2 of 2): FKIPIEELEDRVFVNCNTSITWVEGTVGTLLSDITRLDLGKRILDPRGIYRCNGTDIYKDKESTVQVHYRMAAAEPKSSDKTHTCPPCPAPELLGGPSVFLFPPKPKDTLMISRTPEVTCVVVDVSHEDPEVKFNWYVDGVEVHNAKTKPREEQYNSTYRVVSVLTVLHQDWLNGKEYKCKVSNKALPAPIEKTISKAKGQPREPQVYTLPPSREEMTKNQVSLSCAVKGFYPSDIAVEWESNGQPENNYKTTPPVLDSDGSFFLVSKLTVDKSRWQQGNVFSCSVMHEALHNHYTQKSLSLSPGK

B1: EpCAM1.2-(L)-hu-1F3.1 Fab (bispecific antibody)
heavy chain Fd (VH-CH1), unfused: EVQLVESGGGLVQPGGSLRLSCAASGFTFSTYAMNWVRQAPGKGLEWVSRIRSKYNNYATYYADSVKDRFTISRDDSKNTLYLQMNSLRAEDTAVYYCARHGNFGNSYVSWFAYWGQGTMVTVSSASTKGPSVFPLAPCSRSTSESTAALGCLVKDYFPEPVTVSWNSGALTSGVHTFPAVLQSSGLYSLSSVVTVPSSNFGTQTYTCNVDHKPSNTKVDKTVGGGGSHHHHHHH
light chain with anti-EpCAM scFv EpCAM1.2 at the N-terminus: EVQLVESGGGLVQPGGSLRLSCAASGFTFSNYWMSWVRQAPGKGLEWVANIKQDGSEKFYVDSVKGRFTISRDNAKNSLYLQMNSLRAEDMAVYYCARVGGAWELGYWGQGTLVTVSAGGGGSGGGGSGGGGSGAQSVLTQPPSVSGAPGQRVTISCTGSSSNIGSYYGVHWYQQLPGTAPKLLIYSDTNRPSGVPDRFSGSKSGTSASLAITGLQAEDEADYYCQSYDSSLSGRVFGGGTKLTVLGRAQAVVTQEPSLTVSPGGTVTLTCRSSTGAVTTSNYANWVQQKPGQAPRGLIGGTNKRAPGTPARFSGSLLGGKAALTLSGVQPEDEAEYYCALWYSNLWVFGGGTKLTVLGQPKAAPSVTLFPPSSEELQANKATLVCLISDFYPGAVTVAWKADSSPVKAGVETTTPSKQSNNKYAASSYLSLTPEQWKSHRSYSCQVTHEGSTVEKTVAPTECS
notes: member of group m20; also called EpCAM1.2-(L)-hu-1F3 Fab
For the molecule B1, the binding result in assay [1], in assay [2] and in [3] was “binds” each time.

B2: EpCAM1.2-(H+L)-hu-1F3.1 Fab (bispecific antibody)
heavy chain Fd with anti-EpCAM scFv EpCAM1.2 at the N-terminus: EVQLVESGGGLVQPGGSLRLSCAASGFTFSNYWMSWVRQAPGKGLEWVANIKQDGSEKFYVDSVKGRFTISRDNAKNSLYLQMNSLRAEDMAVYYCARVGGAWELGYWGQGTLVTVSAGGGGSGGGGSGGGGSGAQSVLTQPPSVSGAPGQRVTISCTGSSSNIGSYYGVHWYQQLPGTAPKLLIYSDTNRPSGVPDRFSGSKSGTSASLAITGLQAEDEADYYCQSYDSSLSGRVFGGGTKMTVLGRAEVQLVESGGGLVQPGGSLRLSCAASGFTFSTYAMNWVRQAPGKGLEWVSRIRSKYNNYATYYADSVKDRFTISRDDSKNTLYLQMNSLRAEDTAVYYCARHGNFGNSYVSWFAYWGQGTMVTVSSASTKGPSVFPLAPCSRSTSESTAALGCLVKDYFPEPVTVSWNSGALTSGVHTFPAVLQSSGLYSLSSVVTVPSSNFGTQTYTCNVDHKPSNTKVDKTVGGGGSHHHHHHH
light chain with anti-EpCAM scFv EpCAM1.2 at the N-terminus: B1 light chain with anti-EpCAM scFv EpCAM1.2 at the N-terminus
notes: member of group m20; also called EpCAM1.2-(H+L)-hu-1F3 Fab
Turning to B2, the binding result in [1], in assay [2] and in assay [3] was “binds” in each case.

B3: hu-1F3.3 Fab (Fab, V domains shown)
VH: EVQLVESGGGLVQPGGSLRLSCAASGFTFSTYAMNWVRQAPGKGLEWVARIRSKYNNYATYYADSVKDRFTISRDDSKNTLYLQMNSLRAEDTAVYYCARHGNFGNSYVSWFAYWGQGTMVTVSS
VL: QAVVTQEPSLTVSPGGTVTLTCRSSTGAVTTSNYANWVQQKPGQAPRGLIGGTNKRAPGTPARFSGSLLGGKAALTLSGVQPEDEAEYYCALWYSNLWVFGGGTKLTVL
notes: His6 tag at the C-terminus of the Fd
On to B3, for which the binding result in [4], in assay [5] and in assay [6] was “binds” in each case.

B4: hu-1F3.8 Fab (Fab, V domains shown)
VH: B3 VH
VL: QAVVTQEPSLTVSPGGTVTLTCRSSTGAVTTSNYANWFQQKPGQAPRGLIGGTNKRAPGTPARFSGSLLGGKAALTLSGVQPEDEAEYYCALWYSNLWVFGGGTKLTVLG
notes: as for B3
For B4, the binding result in assay [7], in [8] and in [9] was “binds” throughout.

B5: hu-1F3.4 Fab (Fab, V domains shown)
VH: B3 VH with A99V
VL: B3 VL
notes: as for B3
B5: the binding result in assay [6] is listed as “binds”.

B6: hu-1F3.6 Fab (Fab, V domains shown)
VH: B3 VH with A49S
VL: B4 VL
notes: as for B3
As to B6, the binding result in assay [7], in [8] and in assay [9] was “binds” throughout.

B7: hu-1F3.10 Fab (Fab, V domains shown)
VH: B3 VH with S30N, A99V
VL: B4 VL
notes: as for B3
On to B7, for which the binding result in [7], in [8] and in assay [9] was “binds” each time.

B8: hu-1F3.7 Fab (Fab, V domains shown)
VH: B3 VH with S30N, A49S
VL: B4 VL
notes: as for B3
Regarding B8, the binding result in assay [7], in assay [8] and in [9] was “binds” throughout.

B9: hu-1F3.2 Fab (Fab, V domains shown)
VH: B3 VH with S30N, A49S
VL: B3 VL
notes: as for B3
For B9, the binding result in assay [4], in assay [5] and in assay [6] was “binds” each time.

B10: hu-1F3.1 Fab (Fab, V domains shown)
VH: B3 VH with A49S
VL: B3 VL
notes: His6 tag at the C-terminus of the Fd; No entry is named hu-1F3-1LC; also called hu-1F3 Fab; humanized anti CD3 antibody Fab, hu-1F3
Turning to B10, the binding result in [4] is on record as “binds”; in assay [10] it was “no binding”; in [5], “binds”; in assay [6], “binds”.

B11: hu-1F3.9 Fab (Fab, V domains shown)
VH: B3 VH with A99V
VL: B4 VL
notes: as for B3
On to B11, for which the binding result in assay [7], in assay [8] and in [9] was “binds” each time.

B12: hu-1F3.5 Fab (Fab, V domains shown)
VH: B3 VH with S30N, A99V
VL: B3 VL
notes: His6 tag at the C-terminus of the Fd; also called huIF3.5
For the molecule B12, the entries for the 50% effective concentration (EC50 (read off the curve)) in assay [4], in assay [5] and in assay [6] were roughly 3 nM, roughly 2 nM and roughly 2 nM, respectively.

B13: OKT3 Fab (Fab, V domains shown)
VH: not shown
VL: QIVLTQSPAIMSASPGEKVTMTCSASSSVSYMNWYQQKSGTSPKRWIYDTSKLASGVPAHFRGSGSGTSYSLTISGMEAEDAATYYCQQWSSNPFTFGSGTKLEINR
notes: Anti-CD3 Fab; biotinylated in the assays
On to B13, for which the binding result in [11] is on record as “no binding (tested: about 80 nM (last point; axis to 100 nM))”; in assay [12], “no binding”; in [13] it was “no binding (tested: about 80 nM (last point; axis to 100 nM))”.

B14: EpCAM1.2-(H)-hu-1F3.1 Fab (bispecific antibody)
heavy chain Fd with anti-EpCAM scFv EpCAM1.2 at the N-terminus: B2 heavy chain Fd with anti-EpCAM scFv EpCAM1.2 at the N-terminus
light chain, unfused: QAVVTQEPSLTVSPGGTVTLTCRSSTGAVTTSNYANWVQQKPGQAPRGLIGGTNKRAPGTPARFSGSLLGGKAALTLSGVQPEDEAEYYCALWYSNLWVFGGGTKLTVLGQPKAAPSVTLFPPSSEELQANKATLVCLISDFYPGAVTVAWKADSSPVKAGVETTTPSKQSNNKYAASSYLSLTPEQWKSHRSYSCQVTHEGSTVEKTVAPTECS
notes: member of group m20; also called EpCAM1.2-(H)-hu-1F3 Fab
Take B14: the binding result in assay [1], in assay [2] and in [3] was “binds” in each case.
